Publication PMC12668182, “Molecular basis for CSB stimulation of the SNM1A DNA repair nuclease” (Research Square, 2025)

How the values were obtained:
[1] = target: T1, HaloTag-CSB, full length, JaneliaFluor-labelled (human, UniProt Q03468 1-1493, JaneliaFluor dye (JF552 or JF635) on the HaloTag); assay: single-molecule fluorescence on tethered DNA (SMADNE, LUMICKS C-Trap); partially purified HaloTag-JF-552 SNM1A added to HaloTag-CSB (JF635) nuclear extract, on a site-specific ICL flap repair intermediate in 12 kb DNA; apparent constants; DNA present; conditions: one partner purified
T1 construct: CSB (ERCC6), human, full length, codon-optimised for mammalian expression; Vectors with N-terminal HaloTag under a CMV promoter (Promega pFN28A or Addgene 58241, both used on separate days); also called CSB (JF-635, red); CSB (JF552, green); source: Expi293F, transfected, in nuclear extract; not shown: HaloTag, N-terminal, kept

[2] = target: T1, HaloTag-CSB, full length, …; assay: single-molecule fluorescence on tethered DNA (SMADNE, LUMICKS C-Trap); partially purified HaloTag-JF-552 SNM1A added to HaloTag-CSB (JF635) nuclear extract, on lambda dsDNA; category 9 colocalisation events; apparent constants; DNA present; conditions: one partner purified

B1: HaloTag-JF-552-labelled SNM1A (a.a. 698-1040), partially purified (domain or fragment, human, UniProt Q6PJP8 698-1040, looked up)
chain: KKTCPFYKKIPGTGFTVDAFQYGVVEGCTAYFLTHFHSDHYAGLSKHFTFPVYCSEITGNLLKNKLHVQEQYIHPLPLDTECIVNGVKVVLLDANHCPGAVMILFYLPNGTVILHTGDFRADPSMERSLLADQKVHMLYLDTTYCSPEYTFPSQQEVIRFAINTAFEAVTLNPHALVVCGTYSIGKEKVFLAIADVLGSKVGMSQEKYKTLQCLNIPEINSLITTDMCSSLVHLLPMMQINFKGLQSHLKKCGGKYNQILAFRPTGWTHSNKFTRIADVIPQTKGNISIYGIPYSEHSSYLEMKRFVQWLKPQKIIPTVNVGTWKSRSTMEKYFREWKLEAGY
modifications: JF-552 dye on the HaloTag
notes: SNM1A (DCLRE1A), human, catalytic C-terminal domain, residues 698-1040; Addgene vector (printed as Addgene: 58241) giving an N-terminal His-Halo tag; also called SNM1A (JF-552, green); SNM1A_(698-1040) for single-molecule studies; source: Expi293F, transfected, partially purified (Ni-NTA); not shown: HaloTag, N-terminal, kept
apparent KD of SNM1A for the CSB-bound ICL repair intermediate [1]: 45 nM
apparent KD of SNM1A for CSB-bound lambda dsDNA [2]: 17.5 nM
